Patent publication US20240150473A1 (SURROZEN OPERATING, published 2024)

Columns and labels:
biotinylated LRP6E3E4 [1] = target: T1, biotinylated LRP6E3E4 (UniProt O75581 631-1246, limits assumed, biotinylated (site not stated)); test: BLI (Octet Red 96), biotinylated LRP6E3E4 on streptavidin sensor, 1:1 fit; SEC fraction C1
T1 construct: domain: E3E4; also called Lrp6E3E4 domain; Lrp6 receptor
T1 sequence (looked up): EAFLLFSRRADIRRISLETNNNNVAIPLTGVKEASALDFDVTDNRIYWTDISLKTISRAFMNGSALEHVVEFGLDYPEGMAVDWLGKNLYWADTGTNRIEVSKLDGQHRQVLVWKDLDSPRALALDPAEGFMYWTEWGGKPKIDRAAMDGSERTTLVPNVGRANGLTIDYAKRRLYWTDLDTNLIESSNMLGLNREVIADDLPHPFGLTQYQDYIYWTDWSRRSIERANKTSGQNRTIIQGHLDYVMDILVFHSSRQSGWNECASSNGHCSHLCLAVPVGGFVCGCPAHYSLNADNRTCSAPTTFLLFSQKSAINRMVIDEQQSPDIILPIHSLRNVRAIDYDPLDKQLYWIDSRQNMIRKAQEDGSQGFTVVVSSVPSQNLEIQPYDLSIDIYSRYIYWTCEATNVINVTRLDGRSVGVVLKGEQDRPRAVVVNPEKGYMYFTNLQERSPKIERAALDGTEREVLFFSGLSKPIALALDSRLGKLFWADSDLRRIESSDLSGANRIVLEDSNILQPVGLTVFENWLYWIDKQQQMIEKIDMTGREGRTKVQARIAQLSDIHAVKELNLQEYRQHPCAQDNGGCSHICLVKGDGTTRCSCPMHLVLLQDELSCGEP
Protocol: (§1) Proteins were purified using His-Complete resin (Roche, USA) following standard procedures. Expression levels and homogeneity of VHH26 and its humanized variants were analyzed by SDS-PAGE and SEC (size-exclusion chromatography). […] Biotinylated LRP6E3E4 diluted to 50 nM in the running buffer (PBS, 0.05% Tween-20, 0.5% BSA, pH 7.2) were captured to the SA biosensor followed by dipping into wells containing the indicated VHH26 proteins at different concentrations in running buffer or into a well with only running buffer as a reference channel. KD for each binder was calculated by Octet System software, based on fitting to a 1:1 binding model. Kinetics values (Kon, Koff, KD) from each experiment was calculated from seven technical replicates of different concentrations of the molecule tested with Octet Data Analysis 9.0 (PALL ForteBio, Fremont, CA).
(§2) Central fractions of each of these peaks were examined by Octect-BLI for their ability interact with Lrp6. Kinetics parameters such as kon, koff, and KD for interaction between VHH26 constructs and Lrp6E3E4 domain are listed in Table 2.

biotinylated LRP6E3E4 [2] = target: T1, biotinylated LRP6E3E4; test: BLI (Octet Red 96), biotinylated LRP6E3E4 on streptavidin sensor, 1:1 fit; SEC fraction C3
Protocol: as §1, §2

biotinylated LRP6E3E4 [3] = target: T1, biotinylated LRP6E3E4; test: BLI (Octet Red 96), biotinylated LRP6E3E4 on streptavidin sensor, 1:1 fit; SEC fraction G1
Protocol: as §1, §2

biotinylated LRP6E3E4 [4] = target: T1, biotinylated LRP6E3E4; test: BLI (Octet Red 96), biotinylated LRP6E3E4 on streptavidin sensor, 1:1 fit; SEC fraction G3
Protocol: as §1, §2

LRP5 = LRP5 (human (Huh-7 human liver reporter …, UniProt O75197)); test: cell-based or functional assay
LRP6 = LRP6 (human (Huh-7 human liver reporter …, UniProt O75581)); test: cell-based or functional assay
Chain of LRP6 (human (O75581 20-1613 limits assumed): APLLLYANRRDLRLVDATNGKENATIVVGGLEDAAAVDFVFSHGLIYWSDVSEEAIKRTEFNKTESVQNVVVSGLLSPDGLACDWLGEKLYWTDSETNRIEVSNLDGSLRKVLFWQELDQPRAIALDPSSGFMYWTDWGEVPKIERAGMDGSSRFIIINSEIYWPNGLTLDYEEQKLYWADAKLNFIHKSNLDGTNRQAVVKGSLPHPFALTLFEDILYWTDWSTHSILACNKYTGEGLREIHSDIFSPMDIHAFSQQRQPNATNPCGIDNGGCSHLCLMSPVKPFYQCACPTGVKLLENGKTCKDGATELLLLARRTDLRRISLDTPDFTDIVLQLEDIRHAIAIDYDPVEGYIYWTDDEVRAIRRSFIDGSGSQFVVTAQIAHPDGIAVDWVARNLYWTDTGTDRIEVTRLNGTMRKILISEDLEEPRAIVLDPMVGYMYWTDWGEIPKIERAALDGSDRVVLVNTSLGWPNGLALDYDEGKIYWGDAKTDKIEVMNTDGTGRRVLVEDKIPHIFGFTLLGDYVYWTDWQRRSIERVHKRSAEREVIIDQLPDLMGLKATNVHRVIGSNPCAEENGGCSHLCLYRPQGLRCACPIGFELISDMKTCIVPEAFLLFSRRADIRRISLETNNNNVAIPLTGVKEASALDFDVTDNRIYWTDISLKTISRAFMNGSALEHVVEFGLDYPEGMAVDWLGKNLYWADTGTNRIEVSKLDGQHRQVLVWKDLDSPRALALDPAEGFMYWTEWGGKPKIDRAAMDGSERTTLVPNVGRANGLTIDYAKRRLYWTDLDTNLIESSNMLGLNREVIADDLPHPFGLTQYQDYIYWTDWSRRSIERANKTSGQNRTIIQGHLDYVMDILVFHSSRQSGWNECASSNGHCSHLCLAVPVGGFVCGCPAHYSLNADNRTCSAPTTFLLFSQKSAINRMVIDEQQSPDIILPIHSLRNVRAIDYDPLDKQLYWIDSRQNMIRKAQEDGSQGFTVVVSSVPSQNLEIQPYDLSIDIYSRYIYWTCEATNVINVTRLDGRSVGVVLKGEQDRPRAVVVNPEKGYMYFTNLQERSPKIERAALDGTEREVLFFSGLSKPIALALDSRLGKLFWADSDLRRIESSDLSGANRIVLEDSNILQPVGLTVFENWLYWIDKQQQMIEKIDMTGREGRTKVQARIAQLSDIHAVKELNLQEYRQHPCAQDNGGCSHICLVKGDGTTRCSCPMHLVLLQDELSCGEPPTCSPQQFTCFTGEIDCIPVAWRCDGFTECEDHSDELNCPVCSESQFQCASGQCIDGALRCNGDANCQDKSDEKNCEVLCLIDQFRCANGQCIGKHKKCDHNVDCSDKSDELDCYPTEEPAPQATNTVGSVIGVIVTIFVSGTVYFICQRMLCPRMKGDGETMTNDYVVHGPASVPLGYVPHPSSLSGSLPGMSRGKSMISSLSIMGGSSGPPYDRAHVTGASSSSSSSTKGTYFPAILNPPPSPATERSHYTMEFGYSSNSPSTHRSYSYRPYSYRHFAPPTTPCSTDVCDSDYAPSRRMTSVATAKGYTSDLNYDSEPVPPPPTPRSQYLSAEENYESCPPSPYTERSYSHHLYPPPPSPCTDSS

Chain of LRP5 (human (O75197 32-1615 limits assumed): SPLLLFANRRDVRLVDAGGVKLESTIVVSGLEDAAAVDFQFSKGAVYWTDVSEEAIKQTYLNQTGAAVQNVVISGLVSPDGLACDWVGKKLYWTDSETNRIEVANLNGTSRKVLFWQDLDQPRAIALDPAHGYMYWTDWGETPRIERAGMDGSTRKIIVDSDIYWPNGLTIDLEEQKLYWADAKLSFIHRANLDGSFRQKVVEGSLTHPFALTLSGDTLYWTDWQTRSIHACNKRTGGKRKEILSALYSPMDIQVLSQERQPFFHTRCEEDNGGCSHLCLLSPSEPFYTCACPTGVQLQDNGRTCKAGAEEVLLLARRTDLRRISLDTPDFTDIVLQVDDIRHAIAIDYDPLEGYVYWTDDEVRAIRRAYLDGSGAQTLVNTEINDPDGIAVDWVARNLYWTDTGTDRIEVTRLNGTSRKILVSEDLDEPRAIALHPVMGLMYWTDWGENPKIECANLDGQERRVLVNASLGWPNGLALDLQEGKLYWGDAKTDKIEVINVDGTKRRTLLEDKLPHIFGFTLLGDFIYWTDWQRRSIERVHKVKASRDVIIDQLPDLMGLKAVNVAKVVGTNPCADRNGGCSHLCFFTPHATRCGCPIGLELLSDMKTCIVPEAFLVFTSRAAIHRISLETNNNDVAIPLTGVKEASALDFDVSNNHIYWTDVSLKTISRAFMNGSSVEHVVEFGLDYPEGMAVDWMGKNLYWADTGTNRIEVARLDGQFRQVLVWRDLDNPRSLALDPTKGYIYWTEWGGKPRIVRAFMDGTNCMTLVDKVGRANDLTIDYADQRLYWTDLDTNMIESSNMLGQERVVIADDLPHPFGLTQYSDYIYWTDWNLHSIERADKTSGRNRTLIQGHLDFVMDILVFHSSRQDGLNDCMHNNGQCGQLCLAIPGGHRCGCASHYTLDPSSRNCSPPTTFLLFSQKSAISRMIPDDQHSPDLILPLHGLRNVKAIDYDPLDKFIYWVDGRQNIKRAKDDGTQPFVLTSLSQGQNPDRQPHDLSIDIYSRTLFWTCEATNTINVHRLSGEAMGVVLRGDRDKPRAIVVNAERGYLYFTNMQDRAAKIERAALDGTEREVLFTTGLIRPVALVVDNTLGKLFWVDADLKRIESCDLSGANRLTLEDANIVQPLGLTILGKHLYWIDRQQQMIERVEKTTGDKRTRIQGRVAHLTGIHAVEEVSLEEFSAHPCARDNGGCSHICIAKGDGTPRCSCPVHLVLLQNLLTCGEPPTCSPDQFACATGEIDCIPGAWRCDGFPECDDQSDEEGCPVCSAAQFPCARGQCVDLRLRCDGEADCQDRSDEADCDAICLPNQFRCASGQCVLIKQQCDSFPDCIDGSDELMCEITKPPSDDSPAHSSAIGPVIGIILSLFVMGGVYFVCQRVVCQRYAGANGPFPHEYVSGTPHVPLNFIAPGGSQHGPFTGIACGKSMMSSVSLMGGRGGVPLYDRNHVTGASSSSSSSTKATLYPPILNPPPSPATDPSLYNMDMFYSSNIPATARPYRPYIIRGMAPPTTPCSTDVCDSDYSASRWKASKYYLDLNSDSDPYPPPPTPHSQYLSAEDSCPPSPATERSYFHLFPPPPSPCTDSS

B1: VHH26-H3 (VHH)
VHH: EVQLVESGGGLVQPGGSLRLSCAGSGRIFAIYDIAWYRQAPGKGREWVAMIRPVVTEIDYADSVKGRFTISRDNSKNTVYLQMNSLRAEDTAVYYCNAKRPWGSRDEYWGQGTTVTVSS
notes: Expressed in Expi293 cells with a C-terminal hexa-histidine tag; two SEC peaks were tested separately
Kd (biotinylated LRP6E3E4 [1]): 3200 nM | Kd (biotinylated LRP6E3E4 [2]): 422 nM

B2: VHH26-H1 (VHH)
VHH: EVQLLESGGGLVQPGGSLRLSCAASGRIFAIYDIAWVRQAPGKGLEWVSMIRPVVTEIDYADSVKGRFTISRDNSKNTLYLQMNSLRAEDTAVYYCAKKRPWGSRDEYWGQGTTVTVSS
notes: as for B1
Kd (biotinylated LRP6E3E4 [2]): 281 nM

B3: VHH26-H2 (VHH)
VHH: EVQLVESGGGLVQPGGSLRLSCAGSGRIFAIYDIAWYRQAPGKGLEWVAMIRPVVTEIDYADSVKGRFTISRDNSKNTVYLQMNSLRAEDTAVYYCNAKRPWGSRDEYWGQGTTVTVSS
notes: as for B1
Kd (biotinylated LRP6E3E4 [3]): 441 nM | Kd (biotinylated LRP6E3E4 [4]): 280 nM

B4: VHH26-H5 (VHH)
VHH: EVQLVESGGGLVQPGGSLRLSCAGSGRIFAIYDIAWYRQAPGKGREWVAMIRPVVTEIDYADSVKGRFTISRDNSKKTVYLQMNSLRAEDTAVYYCNAKRPWGSRDEYWGQGTTVTVSS
notes: as for B1
Kd (biotinylated LRP6E3E4 [1]): 41 nM | Kd (biotinylated LRP6E3E4 [2]): 109 nM

B5: VHH26-H4 (VHH)
VHH: EVQLVESGGGLVQPGGSLRLSCAGSGRIFAIYDIAWYRQAPGKGRELVAMIRPVVTEIDYADSVKGRFTISRDNSKNTVYLQMNSLRAEDTAVYYCNAKRPWGSRDEYWGQGTTVTVSS
notes: as for B1
Kd (biotinylated LRP6E3E4 [3]): 662 nM | Kd (biotinylated LRP6E3E4 [4]): 192 nM

B6: VHH26-H6 (VHH)
VHH: EVQLVESGGGLVQPGGSLRLSCAGSGRIFAIYDIAWYRQAPGKGRELVAMIRPVVTEIDYADSVKGRFTISRDNSKKTVYLQMNSLRAEDTAVYYCNAKRPWGSRDEYWGQGTTVTVSS
notes: as for B1
Kd (biotinylated LRP6E3E4 [3]): 687 nM | Kd (biotinylated LRP6E3E4 [4]): 486 nM

B7: VHH03, Parental LALAPG (bispecific antibody)
heavy chain (R2M13 VH-IgG1 LALAPG): EVQLLQSGAEVKKPGSSVKVSCKASGGTFTYRYLHWVRQAPGQGLEWMGGIIPIFGTGNYAQKFQGRVTITADESTSTAYMELSSLRSEDTAVYYCASSMVRVPYYYGMDVWGQGTLVTVSSASTKGPSVFPLAPSSKSTSGGTAALGCLVKDYFPEPVTVSWNSGALTSGVHTFPAVLQSSGLYSLSSVVTVPSSSLGTQTYICNVNHKPSNTKVDKKVEPKSCDKTHTCPPCPAPEAAGGPSVFLFPPKPKDTLMISRTPEVTCVVVDVSHEDPEVKFNWYVDGVEVHNAKTKPREEQYNSTYRVVSVLTVLHQDWLNGKEYKCKVSNKALGAPIEKTISKAKGQPREPQVYTLPPSREEMTKNQVSLTCLVKGFYPSDIAVEWESNGQPENNYKTTPPVLDSDGSFFLYSKLTVDKSRWQQGNVFSCSVMHEALHNHYTQKSLSLSPGK
light chain (VHH03-linker-R2M13 light chain): not shown
EC50, Super TOPFlash (STF) luciferase reporter in Huh-7 STF cells; row LRP5 / VHH03, column Parental LALAPG EC50 (LRP5): 0.11 nM

B8: VHH03, Humanized LALAPG (bispecific antibody)
heavy chain (R2M13 VH-IgG1 LALAPG): EVQLLQSGAEVKKPGSSVKVSCKASGGTFTYRYLHWVRQAPGQGLEWMGGIIPIFGTGNYAQKFQGRVTITADESTSTAYMELSSLRSEDTAVYYCASSMVRVPYYYGMDVWGQGTLVTVSSASTKGPSVFPLAPSSKSTSGGTAALGCLVKDYFPEPVTVSWNSGALTSGVHTFPAVLQSSGLYSLSSVVTVPSSSLGTQTYICNVNHKPSNTKVDKKVEPKSCDKTHTCPPCPAPEAAGGPSVFLFPPKPKDTLMISRTPEVTCVVVDVSHEDPEVKFNWYVDGVEVHNAKTKPREEQYNSTYRVVSVLTVLHQDWLNGKEYKCKVSNKALGAPIEKTISKAKGQPREPQVYTLPPSREEMTKNQVSLTCLVKGFYPSDIAVEWESNGQPENNYKTTPPVLDSDGSFFLYSKLTVDKSRWQQGNVFSCSVMHEALHNHYTQKSLSLSPGK
light chain (humanized VHH03-linker-R2M13 light chain): not shown
EC50, Super TOPFlash (STF) luciferase reporter in Huh-7 STF cells; row LRP5 / VHH03, column Humanized LALAPG EC50 (LRP5): 1.8 nM

B9: VHH36, Parental LALAPG (bispecific antibody, human IgG1, kappa, L234A L235A)
heavy chain (R2M13 VH-IgG1 LALAPG): EVQLLQSGAEVKKPGSSVKVSCKASGGTFTYRYLHWVRQAPGQGLEWMGGIIPIFGTGNYAQKFQGRVTITADESTSTAYMELSSLRSEDTAVYYCASSMVRVPYYYGMDVWGQGTLVTVSSASTKGPSVFPLAPSSKSTSGGTAALGCLVKDYFPEPVTVSWNSGALTSGVHTFPAVLQSSGLYSLSSVVTVPSSSLGTQTYICNVNHKPSNTKVDKKVEPKSCDKTHTCPPCPAPEAAGGPSVFLFPPKPKDTLMISRTPEVTCVVVDVSHEDPEVKFNWYVDGVEVHNAKTKPREEQYNSTYRVVSVLTVLHQDWLNGKEYKCKVSNKALGAPIEKTISKAKGQPREPQVYTLPPSREEMTKNQVSLTCLVKGFYPSDIAVEWESNGQPENNYKTTPPVLDSDGSFFLYSKLTVDKSRWQQGNVFSCSVMHEALHNHYTQKSLSLSPGK
light chain (VHH36-linker-R2M13 light chain): not shown
EC50, Super TOPFlash (STF) luciferase reporter in Huh-7 STF cells; row LRP5&6 / VHH36, column Parental LALAPG EC50 (nM); one value given for both LRP5 and LRP6 (LRP5): 0.06 nM | EC50, Super TOPFlash (STF) luciferase reporter in Huh-7 STF cells; row LRP5&6 / VHH36, column Parental LALAPG EC50 (nM); one value given for both LRP5 and LRP6 (LRP6): 0.06 nM

B10: R2M13-26 humanized LALAPG (R2M13-h26) (bispecific antibody)
heavy: EVQLLQSGAEVKKPGSSVKVSCKASGGTFTYRYLHWVRQAPGQGLEWMGGIIPIFGTGNYAQKFQGRVTITADESTSTAYMELSSLRSEDTAVYYCASSMVRVPYYYGMDVWGQGTLVTVSSASTKGPSVFPLAPSSKSTSGGTAALGCLVKDYFPEPVTVSWNSGALTSGVHTFPAVLQSSGLYSLSSVVTVPSSSLGTQTYICNVNHKPSNTKVDKKVEPKSCDKTHTCPPCPAPEAAGGPSVFLFPPKPKDTLMISRTPEVTCVVVDVSHEDPEVKFNWYVDGVEVHNAKTKPREEQYNSTYRVVSVLTVLHQDWLNGKEYKCKVSNKALGAPIEKTISKAKGQPREPQVYTLPPSREEMTKNQVSLTCLVKGFYPSDIAVEWESNGQPENNYKTTPPVLDSDGSFFLYSKLTVDKSRWQQGNVFSCSVMHEALHNHYTQKSLSLSPGK
light: not shown
EC50, Super TOPFlash (STF) luciferase reporter in Huh-7 STF cells; row LRP6 / VHH26, column Humanized LALAPG EC50 (LRP6): 0.63 nM

B11: VHH36, Humanized LALAPG (bispecific antibody, human IgG1, kappa, L234A L235A)
heavy chain (R2M13 VH-IgG1 LALAPG): EVQLLQSGAEVKKPGSSVKVSCKASGGTFTYRYLHWVRQAPGQGLEWMGGIIPIFGTGNYAQKFQGRVTITADESTSTAYMELSSLRSEDTAVYYCASSMVRVPYYYGMDVWGQGTLVTVSSASTKGPSVFPLAPSSKSTSGGTAALGCLVKDYFPEPVTVSWNSGALTSGVHTFPAVLQSSGLYSLSSVVTVPSSSLGTQTYICNVNHKPSNTKVDKKVEPKSCDKTHTCPPCPAPEAAGGPSVFLFPPKPKDTLMISRTPEVTCVVVDVSHEDPEVKFNWYVDGVEVHNAKTKPREEQYNSTYRVVSVLTVLHQDWLNGKEYKCKVSNKALGAPIEKTISKAKGQPREPQVYTLPPSREEMTKNQVSLTCLVKGFYPSDIAVEWESNGQPENNYKTTPPVLDSDGSFFLYSKLTVDKSRWQQGNVFSCSVMHEALHNHYTQKSLSLSPGK
light chain (humanized VHH36-linker-R2M13 light chain): not shown
EC50, Super TOPFlash (STF) luciferase reporter in Huh-7 STF cells; row LRP5&6 / VHH36, column Humanized LALAPG EC50 (nM); one value given for both LRP5 and LRP6 (LRP5): 1.2 nM | EC50, Super TOPFlash (STF) luciferase reporter in Huh-7 STF cells; row LRP5&6 / VHH36, column Humanized LALAPG EC50 (nM); one value given for both LRP5 and LRP6 (LRP6): 1.2 nM

B12: VHH26, Parental LALAPG (bispecific antibody)
heavy chain (R2M13 VH-IgG1 LALAPG): EVQLLQSGAEVKKPGSSVKVSCKASGGTFTYRYLHWVRQAPGQGLEWMGGIIPIFGTGNYAQKFQGRVTITADESTSTAYMELSSLRSEDTAVYYCASSMVRVPYYYGMDVWGQGTLVTVSSASTKGPSVFPLAPSSKSTSGGTAALGCLVKDYFPEPVTVSWNSGALTSGVHTFPAVLQSSGLYSLSSVVTVPSSSLGTQTYICNVNHKPSNTKVDKKVEPKSCDKTHTCPPCPAPEAAGGPSVFLFPPKPKDTLMISRTPEVTCVVVDVSHEDPEVKFNWYVDGVEVHNAKTKPREEQYNSTYRVVSVLTVLHQDWLNGKEYKCKVSNKALGAPIEKTISKAKGQPREPQVYTLPPSREEMTKNQVSLTCLVKGFYPSDIAVEWESNGQPENNYKTTPPVLDSDGSFFLYSKLTVDKSRWQQGNVFSCSVMHEALHNHYTQKSLSLSPGK
light chain (VHH26-linker-R2M13 light chain): not shown
EC50, Super TOPFlash (STF) luciferase reporter in Huh-7 STF cells; row LRP6 / VHH26, column Parental LALAPG EC50 (LRP6): 1.1 nM
